Results taken from patent US20240132591A1 (PANDION OPERATIONS, published 2024).
Substitutions are numbered along the chain they refer to. Where “and” joins values, the source holds several entries; their conditions need not be identical. Identical values can stand only once. Each block holds one binder with its values, some of them ahead of it.

Columns and labels:
cyno MAdCAM = biological target: T1, cyno MAdCAM (cyno); assay: BLI Octet, AHC capture
T1 construct: also called cynomolgus monkey MAdCAM-1

Human MAdCAM [1] = biological target: T2, Human MAdCAM (human, UniProt Q13477 19-317, limits assumed); assay: BLI Octet, AHC capture
T2 construct: also called huMAdCAM; human MAdCAM-1
T2 sequence (looked up): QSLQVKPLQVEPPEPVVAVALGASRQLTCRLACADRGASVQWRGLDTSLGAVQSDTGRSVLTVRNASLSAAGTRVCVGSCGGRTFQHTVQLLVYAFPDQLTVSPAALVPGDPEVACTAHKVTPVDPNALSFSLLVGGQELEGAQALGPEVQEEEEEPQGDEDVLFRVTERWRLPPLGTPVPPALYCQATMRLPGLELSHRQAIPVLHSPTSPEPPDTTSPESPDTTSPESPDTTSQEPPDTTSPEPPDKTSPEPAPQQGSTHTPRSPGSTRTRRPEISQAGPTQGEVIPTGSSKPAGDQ

Insulin = biological target: T3, Insulin (UniProt P01308 25-54; P01308 90-110); assay: ELISA on insulin-coated plate
T3 construct: Polyreactivity antigen; mature insulin has A and B chains; also called human insulin

mouse MAdCAM [2] = biological target: T4, mouse MAdCAM (mouse, UniProt Q61826 22-365, limits assumed); assay: BLI Octet
T4 construct: also called mouse MAdCAM-1
T4 sequence (looked up): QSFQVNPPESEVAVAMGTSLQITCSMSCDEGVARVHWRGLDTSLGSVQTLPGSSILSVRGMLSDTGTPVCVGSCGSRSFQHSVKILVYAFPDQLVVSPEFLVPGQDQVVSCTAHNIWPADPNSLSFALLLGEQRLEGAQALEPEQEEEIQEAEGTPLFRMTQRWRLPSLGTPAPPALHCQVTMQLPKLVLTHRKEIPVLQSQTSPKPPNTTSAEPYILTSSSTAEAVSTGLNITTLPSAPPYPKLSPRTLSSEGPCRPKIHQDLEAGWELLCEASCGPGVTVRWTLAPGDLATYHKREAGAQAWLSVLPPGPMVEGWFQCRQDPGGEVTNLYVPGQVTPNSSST

Human MAdCAM [3] = biological target: T2, Human MAdCAM; assay: BLI Octet
mouse MAdCAM [4] = biological target: T4, mouse MAdCAM; assay: BLI Octet, AHC capture

Kd (cyno MAdCAM): 0.013 µM
B1: PRNT1 (antibody, human IgG1, kappa)
heavy: EVQLLESGGGLVQPGGSLRLSCAASGFTFSDFWMHWVRQAPGKGLEWISYISGDSGYTNYADSVKGRFTISRDNSKNTLYLQMNSLRAEDTAVYYCARDRPYYYYMDVWGKGTTVTVSSASTKGPSVFPLAPSSKSTSGGTAALGCLVKDYFPEPVTVSWNSGALTSGVHTFPAVLQSSGLYSLSSVVTVPSSSLGTQTYICNVNHKPSNTKVDKKVEPKSCDKTHTCPPCPAPEAAGAPSVFLFPPKPKDTLMISRTPEVTCVVVDVSHEDPEVKFNWYVDGVEVHNAKTKPREEQYNSTYRVVSVLTVLHQDWLNGKEYKCKVSNKALPAPIEKTISKAKGQPREPQVYTLPPSREEMTKNQVSLTCLVKGFYPSDIAVEWESNGQPENNYKTTPPVLDSDGSFFLYSKLTVDKSRWQQGNVFSCSVMHEALHNHYTQKSLSLSPGGGGGSAPTSSSTKKTQLQLEHLLLDLQMILNGINNYKNPKLTRMLTFKFYMPKKATELKHLQCLEEELKPLEEALNLAPSKNFHLRPRDLISDINVIVLELKGSETTFMCEYADETATIVEFINRWITFSQSIISTLT
light: DIQMTQSPSSLSASVGDRVTITCRASQSVSRSLAWYQQKPGKAPKLLIYAASSLQSGVPSRFSGSGSGTDFTLTISSLQPEDFATYYCQQYKSYPVTFGQGTKVEIKRTVAAPSVFIFPPSDEQLKSGTASVVCLLNNFYPREAKVQWKVDNALQSGNSQESVTEQDSKDSTYSLSSTLTLSKADYEKHKVYACEVTHQGLSSPVTKSFNRGEC
notes: also called parent PRNT1; parental molecule PRNT1

Kd (cyno MAdCAM): 0.153 µM | Kd (Human MAdCAM [1]): 0.266 µM and 0.34 µM | fold lower affinity than PRNT1 (Human MAdCAM [1]): 10 fold | koff (Human MAdCAM [1]): 0.0738 s⁻¹ | kon (Human MAdCAM [1]): 278000 M⁻¹ s⁻¹ | binding result (Insulin): no binding (tested: 100 nM)
B2: MIAB169 (antibody, human IgG1, kappa)
heavy: B1 heavy with Y105I
light: B1 light
notes: Y105I variant; also called MIAB169-CHO; MIAB169-HEK

Kd (mouse MAdCAM [2]): 0.124 µM | koff (mouse MAdCAM [2]): 0.0463 s⁻¹ | kon (mouse MAdCAM [2]): 374000 M⁻¹ s⁻¹ | response (mouse MAdCAM [2]): 0.256 | Kd (Human MAdCAM [3]): 0.0376 µM | koff (Human MAdCAM [3]): 0.0398 s⁻¹ | kon (Human MAdCAM [3]): 1.06e+06 M⁻¹ s⁻¹ | response (Human MAdCAM [3]): 0.0839 | Kd (mouse MAdCAM [4]): 0.138 µM | koff (mouse MAdCAM [4]): 0.0204 s⁻¹ | kon (mouse MAdCAM [4]): 148000 M⁻¹ s⁻¹ | response (mouse MAdCAM [4]): 0.139 | Kd (Human MAdCAM [1]): 0.135 µM and 0.115 µM and 0.116 µM and 0.0628 µM | koff (Human MAdCAM [1]): 0.0341 s⁻¹ and 0.0351 s⁻¹ and 0.0276 s⁻¹ and 0.0365 s⁻¹ | kon (Human MAdCAM [1]): 252000 M⁻¹ s⁻¹ and 306000 M⁻¹ s⁻¹ and 238000 M⁻¹ s⁻¹ and 581000 M⁻¹ s⁻¹
B3: PMAB1 (bispecific antibody, human IgG1, kappa)
heavy: EVQLLESGGGLVQPGGSLRLSCAASGFTFSNSDMSWVRQAPGKGLEWVSGITISGGSTYYADSVKGRFTISRDNSKNTLYLQMNSLRAEDTAVYYCARGRGGSGWLDYWGQGTLVTVSSASTKGPSVFPLAPSSKSTSGGTAALGCLVKDYFPEPVTVSWNSGALTSGVHTFPAVLQSSGLYSLSSVVTVPSSSLGTQTYICNVNHKPSNTKVDKKVEPKSCDKTHTCPPCPAPEAAGAPSVFLFPPKPKDTLMISRTPEVTCVVVDVSHEDPEVKFNWYVDGVEVHNAKTKPREEQYNSTYRVVSVLTVLHQDWLNGKEYKCKVSNKALPAPIEKTISKAKGQPREPQVYTLPPSREEMTKNQVSLTCLVKGFYPSDIAVEWESNGQPENNYKTTPPVLDSDGSFFLYSKLTVDKSRWQQGNVFSCSVMHEALHNHYTQKSLSLSPGGGGGSGGGGSGGGGSEVQLLESGGGLVQPGGSLRLSCAASGFTFSDFWMHWVRQAPGKGLEWISYISGDSGYTNYADSVKGRFTISRDNSKNTLYLQMNSLRAEDTAVYYCARDRPYYYYMDVWGKGTTVTVSSGGGGSGGGGSGGGGSGGGGSDIQMTQSPSSLSASVGDRVTITCRASQSVSRSLAWYQQKPGKAPKLLIYAASSLQSGVPSRFSGSGSGTDFTLTISSLQPEDFATYYCQQYKSYPVTFGQGTKVEIK
light: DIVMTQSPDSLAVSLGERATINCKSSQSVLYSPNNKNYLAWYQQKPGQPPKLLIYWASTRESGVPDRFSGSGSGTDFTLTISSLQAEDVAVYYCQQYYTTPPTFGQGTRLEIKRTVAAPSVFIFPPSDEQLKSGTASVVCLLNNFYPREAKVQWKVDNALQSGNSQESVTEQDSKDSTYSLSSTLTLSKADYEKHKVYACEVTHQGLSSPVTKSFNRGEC
notes: also called Parental molecule; parental PMAB1
